# From PMC4854210, “IL-27 Promotes Proliferation of Human Leukemic Cell Lines Through the MAPK/ERK Signaling Pathway and Suppresses Sensitivity to Chemotherapeutic Drugs” (Journal of Interferon & Cytokine Research, 2016)
# T1: Recombinant human IL27Rα-Fc chimera (human, UniProt Q6UWB1 33-516)
# T1 construct: IL-27 receptor subunit alpha (IL-27Rα, WSX-1, TCCR), human; Captured on the chip by anti-human IgG-Fc antibodies; also called IL-27Rα-Fc fusion protein; IL-27R-Fc fusion protein; source: bought: R & D Systems
# T1 sequence (looked up): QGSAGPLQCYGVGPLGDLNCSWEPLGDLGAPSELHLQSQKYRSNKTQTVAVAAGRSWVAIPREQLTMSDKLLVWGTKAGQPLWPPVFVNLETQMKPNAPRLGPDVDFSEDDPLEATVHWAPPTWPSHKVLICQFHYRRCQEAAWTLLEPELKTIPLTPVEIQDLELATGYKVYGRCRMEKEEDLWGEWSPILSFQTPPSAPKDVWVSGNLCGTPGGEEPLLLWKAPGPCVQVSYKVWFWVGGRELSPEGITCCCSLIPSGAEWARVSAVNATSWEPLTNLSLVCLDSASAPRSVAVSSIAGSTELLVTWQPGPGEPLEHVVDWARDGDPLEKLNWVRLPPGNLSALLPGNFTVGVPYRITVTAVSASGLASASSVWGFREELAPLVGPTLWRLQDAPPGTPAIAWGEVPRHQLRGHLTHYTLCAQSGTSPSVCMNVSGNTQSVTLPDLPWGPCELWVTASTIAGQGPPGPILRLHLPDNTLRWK
# T2: Recombinant human gp130-Fc chimera (human, UniProt P40189-1 23-619)
# T2 construct: gp130 (interleukin-6 receptor subunit beta), human; Captured on the chip by anti-human IgG-Fc antibodies; also called gp130-Fc fusion protein; source: bought: R & D Systems
# T2 sequence (looked up): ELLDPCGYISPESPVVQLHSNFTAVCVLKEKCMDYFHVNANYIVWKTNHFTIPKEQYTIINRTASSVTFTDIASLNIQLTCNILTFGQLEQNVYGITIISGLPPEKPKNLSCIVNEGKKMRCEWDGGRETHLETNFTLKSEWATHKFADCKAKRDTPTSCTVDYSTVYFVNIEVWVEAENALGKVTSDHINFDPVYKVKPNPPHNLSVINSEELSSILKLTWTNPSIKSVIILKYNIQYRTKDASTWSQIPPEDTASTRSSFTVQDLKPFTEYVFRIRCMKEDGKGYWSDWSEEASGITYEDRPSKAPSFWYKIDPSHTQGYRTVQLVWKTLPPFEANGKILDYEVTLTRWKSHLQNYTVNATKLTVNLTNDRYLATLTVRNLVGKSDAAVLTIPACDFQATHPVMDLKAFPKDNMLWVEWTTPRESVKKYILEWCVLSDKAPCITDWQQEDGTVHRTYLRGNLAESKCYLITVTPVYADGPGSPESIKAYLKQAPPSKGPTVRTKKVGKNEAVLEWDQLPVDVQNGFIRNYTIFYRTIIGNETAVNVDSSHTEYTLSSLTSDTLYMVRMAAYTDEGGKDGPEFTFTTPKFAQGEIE
# What was measured:
# [1] = molecular target: T1, Recombinant human IL27Rα-Fc chimera; experiment: SPR; IL-27Rα-Fc or gp130-Fc captured on mouse anti-human IgG-Fc antibodies amine-coupled to a CM5 chip; IL-27 injected at increasing concentrations (multicycle), 30 μL/min; BIAcore T100, 25°C, HBS-EP+; double referenced; global fit, 1:1 Langmuir model; KD = kd/ka; settings: both partners purified
# [2] = molecular target: T2, Recombinant human gp130-Fc chimera; experiment: as above; settings: both partners purified
binder,measurement,setting,value
"Recombinant human IL-27 (ligand, IL-27 subunit p28 (cytokine subunit of the heterodimeric IL-27), human; Epstein-Barr virus-induced gene 3 (EBI3), the soluble cytokine receptor subunit of IL-27, human; also called interleukin-27; source: bought: R & D Systems) chain 1: FPRPPGRPQLSLQELRREFTVSLHLARKLLSEVRGQAHRFAESHLPGVNLYLLPLGEQLPDVSLTFQAWRRLSDPERLCFISTTLQPFHALLGGLGTQGRWTNMERMQLWAMRLDLRDLQRHLRFQVLAAGFNLPEEEEEEEEEEEEERKGLLPGALGSALQGPAQVSWPQLLSTYRLLHSLELVLSRAVRELLLLSKAGHSVWPLGFPTLSPQP chain 2: RKGPPAALTLPRVQCRASRYPIAVDCSWTLPPAPNSTSPVSFIATYRLGMAARGHSWPCLQQTPTSTSCTITDVQLFSMAPYVLNVTAVHPWGSSSSFVPFITEHIIKPDPPEGVRLSPLAERQLQVQWEPPGSWPFPEIFSLKYWIRYKRQGAARFHRVGPIEATSFILRAVRPRARYYVQVAAQDLTDYGELSDWSLPATATMSLGK",Kd,[1],0.0457 nM
same,koff,[1],0.00414 s⁻¹
same,kon,[1],9.08e+07 M⁻¹ s⁻¹
same,Kd,[2],2.74 nM
same,koff,[2],456 s⁻¹
